Molecular target: T1, rat testis FSH receptor (rat (endogenous in rat testis), UniProt P20395 18-692)
T1 sequence (looked up): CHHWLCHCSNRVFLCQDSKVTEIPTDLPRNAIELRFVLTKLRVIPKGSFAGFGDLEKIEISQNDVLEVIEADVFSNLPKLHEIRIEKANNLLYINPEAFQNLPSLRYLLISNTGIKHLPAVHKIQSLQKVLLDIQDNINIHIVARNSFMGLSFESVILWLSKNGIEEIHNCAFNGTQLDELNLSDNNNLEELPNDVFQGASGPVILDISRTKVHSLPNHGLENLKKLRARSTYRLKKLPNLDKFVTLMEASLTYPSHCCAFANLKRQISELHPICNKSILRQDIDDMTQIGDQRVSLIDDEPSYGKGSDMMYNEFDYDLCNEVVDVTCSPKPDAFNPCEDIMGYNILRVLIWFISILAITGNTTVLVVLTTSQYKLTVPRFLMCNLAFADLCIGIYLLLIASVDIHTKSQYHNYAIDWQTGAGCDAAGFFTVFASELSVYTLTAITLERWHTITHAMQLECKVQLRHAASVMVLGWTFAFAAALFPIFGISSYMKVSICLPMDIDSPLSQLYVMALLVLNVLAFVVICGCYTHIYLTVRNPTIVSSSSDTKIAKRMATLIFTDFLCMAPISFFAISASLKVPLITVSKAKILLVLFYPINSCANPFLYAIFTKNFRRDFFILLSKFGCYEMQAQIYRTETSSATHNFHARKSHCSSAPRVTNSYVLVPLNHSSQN
Experiment: radioligand binding

B1: human pituitary hFSH^24 glycoform (fully-glycosylated hFSH^24) (complex)
chain 1: not shown
chain 2: NSCELTNITIAIEKEECRFCISINTTWCAGYCYTRDLVYKDPARPKIQKTCTFKELVYETVRVPGCAHHADSLYTYPVATQCHCGKCDSDSTDCTVRGLGPSYCSFGEMKE
modifications: N-glycans at Asn52 and Asn78 | N-glycans at Asn7 and Asn24
B1 was tested. Which ID50 did it give?
Its ID50 is 269 ng.
